According to patent US20250188193A1:
Changes are numbered by the printed parent chain.

B1: E2 (VHH)
VHH: QVQLQESGGGLVQAGGSLRLSCAASSYISRYHTMGWYRQAPGKERSFVAGITWGGLTYYADSVKGRFTVSRDNAKNTVYLQMNSLKPEDTAVYYCAVDGGTRADPYHYYWGQGTQVTVSS
B2: D3 (VHH, not shown: small tags and cut ends)
VHH: QVQLQESGGGLVQAGGSLRLSCAASGNISADRYMGWYRQAPGKEREFVAAIGYGGTTYYADSVKGRFTISRDNAKNTVYLQMNSLKPEDTAVYYCAVVDGAHSRHRYWGQGTQVTVSS
B3: E4 (VHH)
VHH: B1 VHH with S26P, S46E, G50A, L56S, V69I, R102Y

Legend:
[1] = biological target: Rituximab G2 (galactosylated afucosylated glycoform); assay: SPR; drawn table, KD (G2)
[2] = biological target: Rituximab G2 (galactosylated afucosylated glycoform); assay: SPR (Biacore T200), 1:1 Langmuir kinetic fit
[3] = biological target: Rituximab G2F (galactosylated fucosylated glycoform); assay: SPR (Biacore T200), 1:1 Langmuir kinetic fit
[4] = biological target: Rituximab G2 (galactosylated afucosylated glycoform); assay: SPR, 1:1 Langmuir global fit, 1024 to 32 nM

Row | Kd [1] [nM] | Kd [2] [nM] | Kd [3] [nM] | Kd [4] [nM] | Binder
1 | 4740 |  |  |  | B1
2 |  | 323 | 1900 | 353 | B2
3 | 2480 |  |  |  | B3
